The results in this text go back to paper PMC10302475.

For the data set, the target named is Sox6 HMG domain (human) (UniProt P35712). Put plainly: UV laser footprinting. The note with it: 10 mM Tris pH 7.4, 75 mM NaCl, 1 mM EDTA, 1 mM DTT, BSA (100 mg/mL [sic]), 0.01% NP40, 5% glycerol, 37 C, 50 nM DNA or nucleosome (Kdapp is not true Kd) ….

“And” between values parts separate entries of the source, which are not always exact repeats. Identical values can stand only once.

Chain of Sox6 HMG domain (human) (P35712 618-697): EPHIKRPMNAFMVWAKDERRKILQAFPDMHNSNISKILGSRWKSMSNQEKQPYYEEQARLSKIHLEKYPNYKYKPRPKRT

On to “GCATGATTCTTAAGACCGAGTTCATCCCTTATGTGATGGACCCTATACGCGGCCGCCATCAGAATCCCGGTGCCGAGGCCGCTCAATTGGTCGTAGACAGCTCTAGCACCGCTTAAACGCACGTAGGACAATGGAGGCGCGTTTTGGACAATGGAGGCATTACTCCGGACAATGGAGGCACGTGTCAGATATATACATCGATGTGCATGTATTGAACAGCGACCTTGCCGGTGCCAGTCGGATAGAATTCCGGAC (double strand) [601-SHL024 nucleosome]”, for which the K half by setting is: (apparent Kd, SHL2 site of 3x) 550 nM; (apparent Kd, SHL4 site of 3x) 680 nM. As for “GCATGATTCTTAAGACCGAGTTCATCCCTTATGTGATGGACCCTATACGCGGCCGCCATCAGAATCCCGGTGCCGAGGCCGCTCAATTGGTCGTAGACAGCTCTAGCACCGCTTAAACGCACGTACGCGCTGTCCCCCGCGTTTTGGACAATGGAGGCATTACTCCCTAGTCTCCAGGCACGTGTCAGATATATACATCGATGTGCATGTATTGAACAGCGACCTTGCCGGTGCCAGTCGGATAGAATTCCGGAC (double strand) [601-SHL2 naked DNA]”, the K half turned out to be 136 nM. As to “GCATGATTCTTAAGACCGAGTTCATCCCTTATGTGATGGACCCTATACGCGGCCGCCATCAGAATCCCGGTGCCGAGGCCGCTCAATTGGTCGTAGACAGCTCTAGCACCGCTTAAACGCACGTACGCGCTGTCCCCCGCGTTTTGGACAATGGAGGCATTACTCCCTAGTCTCCAGGCACGTGTCAGATATATACATCGATGTGCATGTATTGAACAGCGACCTTGCCGGTGCCAGTCGGATAGAATTCCGGAC (double strand) [601-SHL2 nucleosome]”, the K half (apparent Kd, SHL2 site) worked out at 374 nM. The sequence “GCATGATTCTTAAGACCGAGTTCATCCCTTATGTGATGGACCCTATACGCGGCCGCCATCAGAATCCCGGTGCCGAGGCCGCTCAATTGGTCGTAGACAGCTCTAGCACCGCTTAAACGCACGTACGCGCTGTCCCCCGCGTTTTAACCGCCAAGGGGATTACTCCGGACAATGGAGGCACGTGTCAGATATATACATCGATGTGCATGTATTGAACAGCGACCTTGCCGGTGCCAGTCGGATAGAATTCCGGAC (double strand) [601-SHL4 naked DNA]” yielded a K half of 180 nM.

“GCATGATTCTTAAGACCGAGTTCATCCCTTATGTGATGGACCCTATACGCGGCCGCCATCAGAATCCCGGTGCCGAGGCCGCTCAATTGGTCGTAGACAGCTCTAGCACCGCTTAAACGCACGTAGGACAATGGAGGCGCGTTTTAACCGCCAAGGGGATTACTCCCTAGTCTCCAGGCACGTGTCAGATATATACATCGATGTGCATGTATTGAACAGCGACCTTGCCGGTGCCAGTCGGATAGAATTCCGGAC (double strand) [601-SHL0 naked DNA]” came in with a K half of 100 nM.

Take “GCATGATTCTTAAGACCGAGTTCATCCCTTATGTGATGGACCCTATACGCGGCCGCCATCAGAATCCCGGTGCCGAGGCCGCTCAATTGGTCGTAGACAGCTCTAGCACCGCTTAAACGCACGTACGCGCTGTCCCCCGCGTTTTAACCGCCAAGGGGATTACTCCGGACAATGGAGGCACGTGTCAGATATATACATCGATGTGCATGTATTGAACAGCGACCTTGCCGGTGCCAGTCGGATAGAATTCCGGAC (double strand) [601-SHL4 nucleosome]”: the K half (apparent Kd, SHL4 site) came out at 490 nM. Consider “GCATGATTCTTAAGACCGAGTTCATCCCTTATGTGATGGACCCTATACGCGGCCGCCATCAGAATCCCGGTGCCGAGGCCGCTCAATTGGTCGTAGACAGCTCTAGCACCGCTTAAACGCACGTAGGACAATGGAGGCGCGTTTTGGACAATGGAGGCATTACTCCGGACAATGGAGGCACGTGTCAGATATATACATCGATGTGCATGTATTGAACAGCGACCTTGCCGGTGCCAGTCGGATAGAATTCCGGAC (double strand) [601-SHL024 naked DNA]”, for which the K half was 198 nM and 275 nM and 245 nM.
